Common to all, as to type: biochemical
The nature of data set [1]: Specific activity of the phosphatase (free phosphate released per time per amount). The text has this:
Phosphatases used in embodiments of the invention have a high specific activity on ADP. The specific activity of the phosphatase used in the examples is the amount of free phosphate released from a substrate per unit time and per amount of phosphatase under a given set of conditions, and may be determined at the rising phase of an enzymatic dose curve, such as the hydrolysis curve as described above. In some embodiments, the phosphatase has a specific activity of greater than 100 pmol/min/μg under optimal conditions. The conditions may include optimal pH, salt concentrations, and the presence of any cofactor. In other embodiments, the phosphatase has a specific activity of greater than 1,000 pmol/min/μg. In still other embodiments, the phosphatase has a specific activity of greater than 20,000 pmol/min/μg. When phosphatases having lower specific activity are used, larger amounts of such phosphatases or longer reaction times may be used to achieve the same level of hydrolysis as can be achieved with a phosphatase having higher specific activity.

Data set [2] is described as follows: ATP hydrolysis curve with increasing amounts of phosphatase, free phosphate by Malachite Green. As to conditions: 0.25 μg phosphatase, 100 nmol of 2 mM ATP, 20 minutes. The text has this: The relative activity of the phosphatase on ADP and ATP can be measured by creating hydrolysis curves for ADP and ATP. For example, such hydrolysis curves may be created by performing a series of reactions separately combining set quantities of ADP or ATP with varying quantities of phosphatase and detecting the free phosphate produced. An example of such curves is described in Example 1 below. The resulting phosphate levels (or OD readings, which directly correspond to the phosphate levels) can be plotted against the amount of phosphatase used. The phosphate level or OD readings can be compared at the same quantity of the phosphatase to determine the relative activity of the phosphatase for ADP as compared to ATP. […]
The kinase reactions were carried out in 50 μL of kinase assay buffer including 25 mM Tris, 150 mM NaCl, 5 mM MgCl2, and 5 mM CaCl2 at pH 7.5 in a 96 well plate at room temperature. […] The color was developed with 30 μL Malachite Reagent B. The plate was read at 620 nm with a multi-well plate reader. […]
In this experiment, the relative activity of rhCD39L2 on ADP and ATP was determined. […] The reactions were stopped after 20 minutes and free phosphate was measured using the Malachite Green assay as described above.
The relative activity of recombinant mouse CD 39L2 (rmCD39L2) on ADP and ATP was determined in a series of reactions similar to Example 1. […]

Data set [3] can be described thus: Coupling capacity of the phosphatase (ADP completely hydrolyzed). The note with it: 0.2 μg phosphatase. The source says: Phosphatases useful in embodiments of the invention are preferably able to completely hydrolyze all of the ADP generated in a kinase reaction. The amount of complete hydrolysis which can be performed by a phosphatase under a set of reaction conditions may be characterized as the coupling capacity of the phosphatase. As such, the coupling capacity represents the amount of ADP that can be completely hydrolyzed by a given amount of a phosphatase under specific conditions. Coupling capacity may be determined by performing a series of reactions, combining a set amount of phosphatase with increasing amounts of ADP. The reactions may be performed for various lengths of time, with different coupling capacities as a result. The desired reaction time and amount of phosphatase to be used in kinase reactions can then be selected such that the corresponding coupling capacity is greater than the anticipated amount of ADP produced in the kinase reaction. Coupling capacity can be determined as the maximum amount of ADP that is completely hydrolyzed by a given amount of phosphatase in FIG. 3. […] At this level of ADP production, the amount of phosphatase is therefore adequate. However, as the level of ADP produced increases beyond the capacity for a given amount of phosphatase, hydrolysis may not be complete. At this point, coupling capacity is not adequate for the ADP production during a kinase reaction, and the hydrolysis curve diverges and falls below the phosphate standard curve. […]
In order to provide a measurement of kinase activity, the phosphatase needs to be able to completely hydrolyze all ADP generated by the kinase reaction. In this example, the coupling capacity was determined by performing three series of reactions combining 0.2 μg rhCD39L2 with increasing amounts of ADP (3.125, 6.25, 12.5, 25, 50, and 100 nmols), with each series of reactions allowed to run for various lengths of time 10, 20 or 40 minutes. The reactions were stopped and free phosphate was measured using the Malachite Green assay as described above. […]

B1: rhCD39L2: recombinant human CD39L2, nucleotide phosphatase preferring ADP over ATP, used for coupling (protein, UniProt O75354 1-484, looked up)
Ectonucleoside triphosphate …: MKKGIRYETSRKTSYIFQQPQHGPWQTRMRKISNHGSLRVAKVAYPLGLCVGVFIYVAYIKWHRATATQAFFSITRAAPGARWGQQAHSPLGTAADGHEVFYGIMFDAGSTGTRVHVFQFTRPPRETPTLTHETFKALKPGLSAYADDVEKSAQGIRELLDVAKQDIPFDFWKATPLVLKATAGLRLLPGEKAQKLLQKVKKVFKASPFLVGDDCVSIMNGTDEGVSAWITINFLTGSLKTPGGSSVGMLDLGGGSTQIAFLPRVEGTLQASPPGYLTALRMFNRTYKLYSYSYLGLGLMSARLAILGGVEGQPAKDGKELVSPCLSPSFKGEWEHAEVTYRVSGQKAAASLHELCAARVSEVLQNRVHRTEEVKHVDFYAFSYYYDLAAGVGLIDAEKGGSLVVGDFEIAAKYVCRTLETQPQSSPFSCMDLTYVSLLLQEFGFPRSKVLKLTRKIDNVETSWALGAIFHYIDSLNRQKSPAS
In the case of B1, in data set [1], the “specific activity on ADP” value is listed as > 20,000 pmol/min/μg. In data set [2], the “phosphate released from ATP” value was “less than 3 nmole”. In addition, the coupling capacity is recorded as 10 nmole of ADP in data set [3] (10 minute reaction), 20 nmole of ADP in data set [3] (20 minute reaction) and 100 nmole of ADP in data set [3] (40 minute reaction).

Source of the values: patent US20140080161A1, “PHOSPHATASE COUPLED KINASE ASSAY” (RESEARCH AND DIAGNOSTIC SYSTEMS, INC., priority 2010, published 2014).
